Test results taken from article PMC8294587, “Intrinsic differences in the mechanisms of Tie2 binding to angiopoietins exploited by directed evolution to create an Ang2-selective ligand trap” (The Journal of Biological Chemistry, 2021).

T1: Angiopoietin-1 (UniProt Q15389 16-498)
T1 construct: recombinant Ang1; the residue numbers printed for Ang1 (Gln415, Asp450, Leu471, Tyr478) come from the cited structure 4K0V; also called Ang1; source: recombinant
T1 sequence (looked up): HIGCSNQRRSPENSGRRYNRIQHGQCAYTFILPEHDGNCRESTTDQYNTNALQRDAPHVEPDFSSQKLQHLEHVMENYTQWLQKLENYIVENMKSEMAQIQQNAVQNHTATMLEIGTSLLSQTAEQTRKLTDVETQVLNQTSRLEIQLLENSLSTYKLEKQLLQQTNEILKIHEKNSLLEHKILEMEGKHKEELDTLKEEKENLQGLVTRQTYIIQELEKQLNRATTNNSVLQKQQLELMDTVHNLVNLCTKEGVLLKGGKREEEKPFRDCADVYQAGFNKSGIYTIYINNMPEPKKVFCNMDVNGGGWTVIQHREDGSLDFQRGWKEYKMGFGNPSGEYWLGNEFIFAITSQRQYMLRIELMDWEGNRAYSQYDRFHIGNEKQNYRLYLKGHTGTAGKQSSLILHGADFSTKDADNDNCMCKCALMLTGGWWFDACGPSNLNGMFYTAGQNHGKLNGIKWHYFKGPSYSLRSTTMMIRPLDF

T2: Angiopoietin-2 (UniProt O15123 19-496)
T2 construct: recombinant Ang2; the residue numbers printed for Ang2 (Asp448, Phe469, Ser480) come from the cited structure 2GY7; also called Ang2; source: recombinant
T2 sequence (looked up): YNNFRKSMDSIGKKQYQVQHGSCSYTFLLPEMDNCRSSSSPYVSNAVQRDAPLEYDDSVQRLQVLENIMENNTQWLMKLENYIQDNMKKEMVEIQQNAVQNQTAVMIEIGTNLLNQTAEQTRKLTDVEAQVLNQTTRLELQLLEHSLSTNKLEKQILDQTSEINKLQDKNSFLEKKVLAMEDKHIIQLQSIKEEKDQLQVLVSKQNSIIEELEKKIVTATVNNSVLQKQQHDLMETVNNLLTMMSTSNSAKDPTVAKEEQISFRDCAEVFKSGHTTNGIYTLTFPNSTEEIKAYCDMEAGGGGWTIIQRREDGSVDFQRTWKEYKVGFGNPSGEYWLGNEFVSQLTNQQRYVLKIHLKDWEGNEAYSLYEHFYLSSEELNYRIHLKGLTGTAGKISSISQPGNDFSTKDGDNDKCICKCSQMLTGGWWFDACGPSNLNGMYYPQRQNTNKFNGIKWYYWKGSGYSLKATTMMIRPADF

B1: Tie2 ectodomain-Fc I162A (Fc fusion, human, UniProt Q02763 23-442, looked up)
chain: AMDLILINSLPLVSDAETSLTCIASGWRPHEPITIGRDFEALMNQHQDPLEVTQDVTREWAKKVVWKREKASKINGAYFCEGRVRGEAIRIRTMKMRQQASFLPATLTMTVDKGDNVNISFKKVLIKEEDAVIYKNGSFAHSVPRHEVPDILEVHLPHAQPQDAGVYSARYIGGNLFTSAFTRLIVRRCEAQKWGPECNHLCTACMNNGVCHEDTGECICPPGFMGRTCEKACELHTFGRTCKERCSGQEGCKSYVFCLPDPYGCSCATGWKGLQCNEACHPGFYGPDCKLRCSCNNGEMCDRFQGCLCSPGWQGLQCEREGIQRMTPKIVDLPDHIEVNSGKFNPICKASGWPLPTNEEMTLVKPDGTVLHPKDFNHTDHFSVAIFTIHRILPPDSGVWVCSVNTVAGMVEKPFNISVK
notes: signal peptide in the construct; Tie2 ectodomain, human, residues 1-442; source: Hek293, transfected, purified from culture medium (nickel chromatography); not shown: Fc (fragment of human Fc immunoglobulin domain, after a GS4 linker), C-terminal, kept
B2: Tie2 ectodomain-Fc R167A (Fc fusion, human, UniProt Q02763 23-442, looked up)
chain: AMDLILINSLPLVSDAETSLTCIASGWRPHEPITIGRDFEALMNQHQDPLEVTQDVTREWAKKVVWKREKASKINGAYFCEGRVRGEAIRIRTMKMRQQASFLPATLTMTVDKGDNVNISFKKVLIKEEDAVIYKNGSFIHSVPAHEVPDILEVHLPHAQPQDAGVYSARYIGGNLFTSAFTRLIVRRCEAQKWGPECNHLCTACMNNGVCHEDTGECICPPGFMGRTCEKACELHTFGRTCKERCSGQEGCKSYVFCLPDPYGCSCATGWKGLQCNEACHPGFYGPDCKLRCSCNNGEMCDRFQGCLCSPGWQGLQCEREGIQRMTPKIVDLPDHIEVNSGKFNPICKASGWPLPTNEEMTLVKPDGTVLHPKDFNHTDHFSVAIFTIHRILPPDSGVWVCSVNTVAGMVEKPFNISVK
notes: signal peptide in the construct; Tie2 ectodomain, human, residues 1-442; also called Arg167Ala; source: Hek293, transfected, purified from culture medium (nickel chromatography); not shown: Fc (fragment of human Fc immunoglobulin domain, after a GS4 linker), C-terminal, kept
B3: Tie2 ectodomain-Fc Arg167Ala/His168Ala/Glu169Ala (Fc fusion, human, UniProt Q02763 23-442, looked up)
chain: AMDLILINSLPLVSDAETSLTCIASGWRPHEPITIGRDFEALMNQHQDPLEVTQDVTREWAKKVVWKREKASKINGAYFCEGRVRGEAIRIRTMKMRQQASFLPATLTMTVDKGDNVNISFKKVLIKEEDAVIYKNGSFIHSVPAAAVPDILEVHLPHAQPQDAGVYSARYIGGNLFTSAFTRLIVRRCEAQKWGPECNHLCTACMNNGVCHEDTGECICPPGFMGRTCEKACELHTFGRTCKERCSGQEGCKSYVFCLPDPYGCSCATGWKGLQCNEACHPGFYGPDCKLRCSCNNGEMCDRFQGCLCSPGWQGLQCEREGIQRMTPKIVDLPDHIEVNSGKFNPICKASGWPLPTNEEMTLVKPDGTVLHPKDFNHTDHFSVAIFTIHRILPPDSGVWVCSVNTVAGMVEKPFNISVK
notes: signal peptide in the construct; Tie2 ectodomain, human, residues 1-442; also called triple alanine substitution of Arg167, His168 and Glu169; source: Hek293, transfected, purified from culture medium (nickel chromatography); not shown: Fc (fragment of human Fc immunoglobulin domain, after a GS4 linker), C-terminal, kept
B4: Tie2 ectodomain-Fc H163A (Fc fusion, human, UniProt Q02763 23-442, looked up)
chain: AMDLILINSLPLVSDAETSLTCIASGWRPHEPITIGRDFEALMNQHQDPLEVTQDVTREWAKKVVWKREKASKINGAYFCEGRVRGEAIRIRTMKMRQQASFLPATLTMTVDKGDNVNISFKKVLIKEEDAVIYKNGSFIASVPRHEVPDILEVHLPHAQPQDAGVYSARYIGGNLFTSAFTRLIVRRCEAQKWGPECNHLCTACMNNGVCHEDTGECICPPGFMGRTCEKACELHTFGRTCKERCSGQEGCKSYVFCLPDPYGCSCATGWKGLQCNEACHPGFYGPDCKLRCSCNNGEMCDRFQGCLCSPGWQGLQCEREGIQRMTPKIVDLPDHIEVNSGKFNPICKASGWPLPTNEEMTLVKPDGTVLHPKDFNHTDHFSVAIFTIHRILPPDSGVWVCSVNTVAGMVEKPFNISVK
notes: as for B1
B5: Tie2 ectodomain-Fc E169A (Fc fusion, human, UniProt Q02763 23-442, looked up)
chain: AMDLILINSLPLVSDAETSLTCIASGWRPHEPITIGRDFEALMNQHQDPLEVTQDVTREWAKKVVWKREKASKINGAYFCEGRVRGEAIRIRTMKMRQQASFLPATLTMTVDKGDNVNISFKKVLIKEEDAVIYKNGSFIHSVPRHAVPDILEVHLPHAQPQDAGVYSARYIGGNLFTSAFTRLIVRRCEAQKWGPECNHLCTACMNNGVCHEDTGECICPPGFMGRTCEKACELHTFGRTCKERCSGQEGCKSYVFCLPDPYGCSCATGWKGLQCNEACHPGFYGPDCKLRCSCNNGEMCDRFQGCLCSPGWQGLQCEREGIQRMTPKIVDLPDHIEVNSGKFNPICKASGWPLPTNEEMTLVKPDGTVLHPKDFNHTDHFSVAIFTIHRILPPDSGVWVCSVNTVAGMVEKPFNISVK
notes: signal peptide in the construct; Tie2 ectodomain, human, residues 1-442; also called Glu169Ala; source: Hek293, transfected, purified from culture medium (nickel chromatography); not shown: Fc (fragment of human Fc immunoglobulin domain, after a GS4 linker), C-terminal, kept

Assays:
Test in all cases: ELISA; recombinant Ang1 or Ang2 immobilised on Maxisorp plates, blocked with TBS, 0.1% Triton-X100, 5% milk powder; Tie2 ectodomain proteins bound for 1 h; detected with anti-Tie2 ectodomain antibodies; EC50 = concentration of ectodomain for 50% of maximal binding
Settings in all cases: both partners purified
[1] = molecular target: T1, Angiopoietin-1
[2] = molecular target: T2, Angiopoietin-2
[3] = molecular target: T2, Angiopoietin-2; remark: listed apart in the source

Binder	EC50 [1] [nM]	EC50 [2] [nM]	binding result [3]
B1	6.38	23.1	
B2	26.6	10.3	
B3			binds
B4	1.38	5.88	
B5	9	3.94	
